The source of these data is US20080104734A1.

In this assay the target is SSPG1d peptide (…) (Sclerotinia sclerotiorum). The experiment in a line: phage ELISA during panning of the phage display scFv library. (An ELISA detects its analyte on a solid surface through an enzyme-linked reagent.)

B1: scFv-SSPG1d-peptide (scFv)
scFv: MDIVLTQSPAIMSASPGEKVTMTCSASSSVSYMHWYQQKSSTSPKLWIYDTSKLASGVPGRFSGSGSGNSYSLTISSMEAEDVATYYCFQGSGYPLTFGAGTKLEIKRGAGGSGGGGSGGGGSGGGGSQVQLQQSGAELVRPGSSVKISCKASGYAFSNYWMNWVKQRPGQGLEWIGQIYPGYGDAKYNGKFKGKATLTADISSSTAYMQLSSLTSEDSAVYFCARSSYEANWGQGTLVTVSA
The molecule B1 had an absorbance at 450 nm above background (absorbance (450 nm)) of 0.871.
